B1: N^ε1-[2-[2-[2-[[(4S)-4-carboxy-4-(19-carboxynonadecanoylamino)butanoyl]amino]ethoxy]ethoxy]acetyl]-[Arg14,Arg17,Pro21,Pro27]-h-amylin (peptide)
peptide: K([AEEA-γGlu-C20 diacid])CNTATCATQRLARFLRHSSPNFGAIPSSTNVGSNTY-NH2
modifications: disulfide 2-7; N-terminus assumed
SMILES: CC[C@H](C)[C@H](NC(=O)[C@H](C)NC(=O)CNC(=O)[C@H](Cc1ccccc1)NC(=O)[C@H](CC(N)=O)NC(=O)[C@@H]1CCCN1C(=O)[C@H](CO)NC(=O)[C@H](CO)NC(=O)[C@H](Cc1c[nH]cn1)NC(=O)[C@H](CCCNC(=N)N)NC(=O)[C@H](CC(C)C)NC(=O)[C@H](Cc1ccccc1)NC(=O)[C@H](CCCNC(=N)N)NC(=O)[C@H](C)NC(=O)[C@H](CC(C)C)NC(=O)[C@H](CCCNC(=N)N)NC(=O)[C@H](CCC(N)=O)NC(=O)[C@@H](NC(=O)[C@H](C)NC(=O)[C@@H]1CSSC[C@H](NC(=O)[C@@H](N)CCCCNC(=O)COCCOCCNC(=O)CC[C@H](NC(=O)CCCCCCCCCCCCCCCCCCC(=O)O)C(=O)O)C(=O)N[C@@H](CC(N)=O)C(=O)N[C@@H]([C@@H](C)O)C(=O)N[C@@H](C)C(=O)N[C@@H]([C@@H](C)O)C(=O)N1)[C@@H](C)O)C(=O)N1CCC[C@H]1C(=O)N[C@@H](CO)C(=O)N[C@@H](CO)C(=O)N[C@H](C(=O)N[C@@H](CC(N)=O)C(=O)N[C@H](C(=O)NCC(=O)N[C@@H](CO)C(=O)N[C@@H](CC(N)=O)C(=O)N[C@H](C(=O)N[C@@H](Cc1ccc(O)cc1)C(N)=O)[C@@H](C)O)C(C)C)[C@@H](C)O
notes: also called compound 82
B2: N^ε1-[2-[2-[2-[[(4S)-4-carboxy-4-(19-carboxynonadecanoylamino)butanoyl]amino]ethoxy]ethoxy]acetyl]-[Gly14,Arg17,Pro21,Pro27,Pro31]-h-amylin (peptide)
peptide: K([AEEA-γGlu-C20 diacid])CNTATCATQRLAGFLRHSSPNFGAIPSSTPVGSNTY-NH2
modifications: disulfide 2-7; N-terminus assumed
SMILES: CC[C@H](C)[C@H](NC(=O)[C@H](C)NC(=O)CNC(=O)[C@H](Cc1ccccc1)NC(=O)[C@H](CC(N)=O)NC(=O)[C@@H]1CCCN1C(=O)[C@H](CO)NC(=O)[C@H](CO)NC(=O)[C@H](Cc1c[nH]cn1)NC(=O)[C@H](CCCNC(=N)N)NC(=O)[C@H](CC(C)C)NC(=O)[C@H](Cc1ccccc1)NC(=O)CNC(=O)[C@H](C)NC(=O)[C@H](CC(C)C)NC(=O)[C@H](CCCNC(=N)N)NC(=O)[C@H](CCC(N)=O)NC(=O)[C@@H](NC(=O)[C@H](C)NC(=O)[C@@H]1CSSC[C@H](NC(=O)[C@@H](N)CCCCNC(=O)COCCOCCNC(=O)CC[C@H](NC(=O)CCCCCCCCCCCCCCCCCCC(=O)O)C(=O)O)C(=O)N[C@@H](CC(N)=O)C(=O)N[C@@H]([C@@H](C)O)C(=O)N[C@@H](C)C(=O)N[C@@H]([C@@H](C)O)C(=O)N1)[C@@H](C)O)C(=O)N1CCC[C@H]1C(=O)N[C@@H](CO)C(=O)N[C@@H](CO)C(=O)N[C@H](C(=O)N1CCC[C@H]1C(=O)N[C@H](C(=O)NCC(=O)N[C@@H](CO)C(=O)N[C@@H](CC(N)=O)C(=O)N[C@H](C(=O)N[C@@H](Cc1ccc(O)cc1)C(N)=O)[C@@H](C)O)C(C)C)[C@@H](C)O
notes: also called compound 71
B3: N^ε1-[2-[2-[2-[[(4S)-4-carboxy-4-(19-carboxynonadecanoylamino)butanoyl]amino]ethoxy]ethoxy]acetyl]-[Arg17,Pro21,Pro27,Arg34]-h-amylin (peptide)
peptide: K([AEEA-γGlu-C20 diacid])CNTATCATQRLANFLRHSSPNFGAIPSSTNVGRNTY-NH2
modifications: disulfide 2-7; N-terminus assumed
SMILES: CC[C@H](C)[C@H](NC(=O)[C@H](C)NC(=O)CNC(=O)[C@H](Cc1ccccc1)NC(=O)[C@H](CC(N)=O)NC(=O)[C@@H]1CCCN1C(=O)[C@H](CO)NC(=O)[C@H](CO)NC(=O)[C@H](Cc1c[nH]cn1)NC(=O)[C@H](CCCNC(=N)N)NC(=O)[C@H](CC(C)C)NC(=O)[C@H](Cc1ccccc1)NC(=O)[C@H](CC(N)=O)NC(=O)[C@H](C)NC(=O)[C@H](CC(C)C)NC(=O)[C@H](CCCNC(=N)N)NC(=O)[C@H](CCC(N)=O)NC(=O)[C@@H](NC(=O)[C@H](C)NC(=O)[C@@H]1CSSC[C@H](NC(=O)[C@@H](N)CCCCNC(=O)COCCOCCNC(=O)CC[C@H](NC(=O)CCCCCCCCCCCCCCCCCCC(=O)O)C(=O)O)C(=O)N[C@@H](CC(N)=O)C(=O)N[C@@H]([C@@H](C)O)C(=O)N[C@@H](C)C(=O)N[C@@H]([C@@H](C)O)C(=O)N1)[C@@H](C)O)C(=O)N1CCC[C@H]1C(=O)N[C@@H](CO)C(=O)N[C@@H](CO)C(=O)N[C@H](C(=O)N[C@@H](CC(N)=O)C(=O)N[C@H](C(=O)NCC(=O)N[C@@H](CCCNC(=N)N)C(=O)N[C@@H](CC(N)=O)C(=O)N[C@H](C(=O)N[C@@H](Cc1ccc(O)cc1)C(N)=O)[C@@H](C)O)C(C)C)[C@@H](C)O
notes: also called compound 78
B4: N^ε1-[2-[2-[2-[[(4S)-4-carboxy-4-(19-carboxynonadecanoylamino)butanoyl]amino]ethoxy]ethoxy]acetyl]-[His14,Arg17,Pro21,Pro27,Arg34]-h-amylin (peptide)
peptide: K([AEEA-γGlu-C20 diacid])CNTATCATQRLAHFLRHSSPNFGAIPSSTNVGRNTY-NH2
modifications: disulfide 2-7; N-terminus assumed
SMILES: CC[C@H](C)[C@H](NC(=O)[C@H](C)NC(=O)CNC(=O)[C@H](Cc1ccccc1)NC(=O)[C@H](CC(N)=O)NC(=O)[C@@H]1CCCN1C(=O)[C@H](CO)NC(=O)[C@H](CO)NC(=O)[C@H](Cc1c[nH]cn1)NC(=O)[C@H](CCCNC(=N)N)NC(=O)[C@H](CC(C)C)NC(=O)[C@H](Cc1ccccc1)NC(=O)[C@H](Cc1c[nH]cn1)NC(=O)[C@H](C)NC(=O)[C@H](CC(C)C)NC(=O)[C@H](CCCNC(=N)N)NC(=O)[C@H](CCC(N)=O)NC(=O)[C@@H](NC(=O)[C@H](C)NC(=O)[C@@H]1CSSC[C@H](NC(=O)[C@@H](N)CCCCNC(=O)COCCOCCNC(=O)CC[C@H](NC(=O)CCCCCCCCCCCCCCCCCCC(=O)O)C(=O)O)C(=O)N[C@@H](CC(N)=O)C(=O)N[C@@H]([C@@H](C)O)C(=O)N[C@@H](C)C(=O)N[C@@H]([C@@H](C)O)C(=O)N1)[C@@H](C)O)C(=O)N1CCC[C@H]1C(=O)N[C@@H](CO)C(=O)N[C@@H](CO)C(=O)N[C@H](C(=O)N[C@@H](CC(N)=O)C(=O)N[C@H](C(=O)NCC(=O)N[C@@H](CCCNC(=N)N)C(=O)N[C@@H](CC(N)=O)C(=O)N[C@H](C(=O)N[C@@H](Cc1ccc(O)cc1)C(N)=O)[C@@H](C)O)C(C)C)[C@@H](C)O
notes: also called compound 84

Numbered stars: 1 amine (or outer) side, 2 acyl side, 3 side chain; on linkers, the order of the positions; unused ones are H or OH. Bridge positions count the residues as written; N and C are the ends. Side chains are listed from the residue outwards. Ends that are not written are not given here. * marks the point of attachment. C20 diacid = O=C(O)CCCCCCCCCCCCCCCCCCC(=O)*; γGlu = O=C(O)[C@H](CCC(=O)[*:2])N[*:1]; AEEA = NCCOCCOCC(=O)O

Consider four molecules from US20140087995A1 (published 2014).

One test deals with T1, human calcitonin receptor (human, UniProt P30988 25-474).
T1 construct: whole, on cells; Used as cell membranes; also called hCTR; hCT
T1 sequence (looked up): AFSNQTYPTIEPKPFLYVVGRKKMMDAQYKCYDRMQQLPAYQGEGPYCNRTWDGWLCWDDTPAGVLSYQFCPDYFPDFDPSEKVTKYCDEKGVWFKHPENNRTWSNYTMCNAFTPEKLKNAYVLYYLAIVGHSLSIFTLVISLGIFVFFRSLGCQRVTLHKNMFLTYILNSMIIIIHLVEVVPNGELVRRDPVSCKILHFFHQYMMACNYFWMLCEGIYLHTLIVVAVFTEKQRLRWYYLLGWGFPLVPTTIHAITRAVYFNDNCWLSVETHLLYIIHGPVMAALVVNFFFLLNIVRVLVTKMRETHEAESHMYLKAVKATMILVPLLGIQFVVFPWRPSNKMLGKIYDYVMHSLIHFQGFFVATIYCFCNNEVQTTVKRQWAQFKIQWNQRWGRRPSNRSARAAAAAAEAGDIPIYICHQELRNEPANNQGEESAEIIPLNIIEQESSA
The test can be described thus: ratio of hCTR IC50 to hAmylin-R IC50 (reference: human amylin receptor). The method, then: The resulting pellet was resuspended, homogenized and centrifuged (20.000 rpm, 15 min) in a buffer containing 20 mM Na-HEPES and 0.1 mM EDTA (pH 7.4, buffer 2). The resulting pellet was resuspended in buffer 2 and protein concentration was measured (BCA protein Assay, Pierce). The homogenate was kept cold during the whole procedure. The membranes were kept at −80° C. until use. The assay was performed in a 384 well Optiplate (PerkinElmer) in a total volume of 40 ul. Membranes were mixed with SPA beads. Final concentration of membranes 35 ng/μL final and SPA beads was 0.05 mg/well. Test-compounds were dissolved in DMSO and further diluted in assay buffer (50 mM Hepes, pH 7.4, 1 mM CaCl2, 5 mM MgCl₂, 0.1% OA and 0.02% Tween20). […] The final mixture was incubated with shaking at 400 rpm for 120 min at 25° C. prior to centrifugation (1500 rpm, 10 min). Samples were analyzed on TopCounter™ (Packard). The IC₅₀ was calculated using (one site binding competition analysis) GraphPad Prism5 as a measure of receptor affinity.
Membranes were prepared in the following way; the cells were rinsed with PBS and incubated with Versene for approximately 5 min before harvesting. The cells were flushed with PBS and the cell-suspension was centrifuged for 5 min at 1000 rpm. Cells were homogenized (Ultrathurrax) in a buffer containing 20 mM Na-HEPES and 10 mM EDTA (pH 7.4) and centrifuged at 20.000 rpm for 15 min. The resulting pellet was resuspended, homogenized and centrifuged (20.000 rpm, 15 min) in a buffer containing 20 mM Na-HEPES and 0.1 mM EDTA (pH 7.4, buffer 2). The resulting pellet was resuspended in buffer 2 and protein concentration was measured (BCA protein Assay, Pierce). The homogenate was kept cold during the whole procedure. The membranes were kept at −80° C. until use. Assay was performed in a 384 well Optiplate (PerkinElmer) in a total volume of 40 ul. Membranes were mixed with SPA beads.
With B1, the “Ratio hCT/hAmylin binding” value came out at 140.

Consider B2, for which the “Ratio hCT/hAmylin binding” value came out at 32.

For B3, the “Ratio hCT/hAmylin binding” value was 60.7.

In the case of B4, the “Ratio hCT/hAmylin binding” value turned out to be 120.

The next test deals with T1, human calcitonin receptor. The test can be described thus: SPA competition on BHK cell membranes, 125I-calcitonin as radioligand (Assay VII). The method, then:
Membranes were prepared in the following way; the cells were rinsed with PBS and incubated with Versene for approximately 5 min before harvesting. The cells were flushed with PBS and the cell-suspension was centrifuged for 5 min at 1000 rpm. Cells were homogenized (Ultrathurrax) in a buffer containing 20 mM Na-HEPES and 10 mM EDTA (pH 7.4) and centrifuged at 20.000 rpm for 15 min. The resulting pellet was resuspended, homogenized and centrifuged (20.000 rpm, 15 min) in a buffer containing 20 mM Na-HEPES and 0.1 mM EDTA (pH 7.4, buffer 2). The resulting pellet was resuspended in buffer 2 and protein concentration was measured (BCA protein Assay, Pierce). The homogenate was kept cold during the whole procedure. The membranes were kept at −80° C. until use. Assay was performed in a 384 well Optiplate (PerkinElmer) in a total volume of 40 ul. Membranes were mixed with SPA beads. Final concentration of membranes 35 ng/μL final and Final concentration of SPA beads was 0.05 mg/well. Test-compounds were dissolved in DMSO and further diluted in assay buffer (50 mM Hepes, pH 7.4, 1 mM CaCl2, 5 mM MgCl₂, 0.1% OA and 0.02% Tween20). […] The final mixture was incubated for 120 min with shaking at 400 rpm at 25° C. prior to centrifugation (1500 rpm, 10 min). Samples were analyzed on TopCounter™ (Packard). The […] was calculated using (one site binding competition analysis) GraphPad Prism5 as a measure of receptor affinity.
What is called IC50 is the concentration that inhibits the measured activity by half. As for B1, the IC50 came to 88.8 nM.

Consider B2, for which the IC50 was determined as 1.53 nM.

As to B3, the IC50 is 36.5 nM.

Consider B4, for which the IC50 came out at 88.9 nM.
